T1: full-length human recombinant PAD3 (human, UniProt Q9ULW8 1-664)
T1 construct: mature; Full-length recombinant protein coated on plates at 100 ng/mL
T1 sequence (looked up): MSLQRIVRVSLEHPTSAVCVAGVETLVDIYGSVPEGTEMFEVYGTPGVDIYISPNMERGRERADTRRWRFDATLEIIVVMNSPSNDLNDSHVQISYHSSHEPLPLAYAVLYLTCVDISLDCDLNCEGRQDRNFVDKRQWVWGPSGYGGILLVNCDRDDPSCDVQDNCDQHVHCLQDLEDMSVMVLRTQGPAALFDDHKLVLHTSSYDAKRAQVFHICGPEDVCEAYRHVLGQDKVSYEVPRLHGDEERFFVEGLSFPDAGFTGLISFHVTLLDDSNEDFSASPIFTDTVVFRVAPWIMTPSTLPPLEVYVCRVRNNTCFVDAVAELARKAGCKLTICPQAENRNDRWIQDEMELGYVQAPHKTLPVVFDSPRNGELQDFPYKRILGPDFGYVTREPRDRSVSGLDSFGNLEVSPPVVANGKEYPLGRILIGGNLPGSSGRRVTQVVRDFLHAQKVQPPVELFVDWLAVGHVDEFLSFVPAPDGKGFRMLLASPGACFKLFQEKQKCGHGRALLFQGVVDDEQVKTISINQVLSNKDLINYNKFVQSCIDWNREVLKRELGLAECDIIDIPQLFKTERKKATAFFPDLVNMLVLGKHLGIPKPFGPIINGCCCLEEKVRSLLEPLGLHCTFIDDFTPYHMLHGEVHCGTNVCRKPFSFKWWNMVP


Key:
[1] = biological target: full-length human recombinant PAD4 (human, UniProt Q9UM07 1-663); assay: ELISA, purified mAb 1:100 on PAD-coated plates (Fig. 2)
[2] = biological target: T1, full-length human recombinant PAD3; assay: as above
[3] = biological target: T2, full-length human recombinant PAD2 (human, UniProt Q9Y2J8 1-665); assay: ELISA, culture supernatant 1:20 on PAD2-coated plates (Fig. 3)
T2 construct: also called rhPAD2; recombinant human PAD2

murine recombinant PAD2 = biological target: T3, murine recombinant PAD2 (mouse, UniProt Q08642 1-673, limits assumed); assay: ELISA, culture supernatant 1:20 on mPAD2-coated plates (Fig. 3)
T3 construct: also called mPAD2; murine PAD2

[4] = biological target: T2, full-length human recombinant PAD2; assay: ELISA, purified mAb 1:100 on PAD-coated plates (Fig. 2)

T3 sequence (Q08642 whole entry): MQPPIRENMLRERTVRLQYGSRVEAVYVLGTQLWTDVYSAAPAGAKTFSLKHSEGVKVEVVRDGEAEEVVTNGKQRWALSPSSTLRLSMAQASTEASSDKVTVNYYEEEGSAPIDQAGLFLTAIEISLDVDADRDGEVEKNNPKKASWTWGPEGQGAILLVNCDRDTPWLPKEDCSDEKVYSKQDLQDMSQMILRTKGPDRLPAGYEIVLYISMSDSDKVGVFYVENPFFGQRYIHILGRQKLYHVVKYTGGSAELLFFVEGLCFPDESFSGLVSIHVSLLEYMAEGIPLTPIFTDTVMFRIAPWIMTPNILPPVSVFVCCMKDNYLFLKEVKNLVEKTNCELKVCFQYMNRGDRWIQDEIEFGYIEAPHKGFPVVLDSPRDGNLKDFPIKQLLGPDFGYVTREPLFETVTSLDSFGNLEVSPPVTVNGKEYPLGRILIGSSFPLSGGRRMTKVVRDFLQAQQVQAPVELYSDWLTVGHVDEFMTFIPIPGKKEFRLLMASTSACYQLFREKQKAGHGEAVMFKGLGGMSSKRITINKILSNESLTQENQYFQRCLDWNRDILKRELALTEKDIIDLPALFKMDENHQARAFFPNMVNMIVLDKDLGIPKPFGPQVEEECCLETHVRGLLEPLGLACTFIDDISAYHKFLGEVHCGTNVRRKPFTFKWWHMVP
T2 sequence (Q9Y2J8 whole entry): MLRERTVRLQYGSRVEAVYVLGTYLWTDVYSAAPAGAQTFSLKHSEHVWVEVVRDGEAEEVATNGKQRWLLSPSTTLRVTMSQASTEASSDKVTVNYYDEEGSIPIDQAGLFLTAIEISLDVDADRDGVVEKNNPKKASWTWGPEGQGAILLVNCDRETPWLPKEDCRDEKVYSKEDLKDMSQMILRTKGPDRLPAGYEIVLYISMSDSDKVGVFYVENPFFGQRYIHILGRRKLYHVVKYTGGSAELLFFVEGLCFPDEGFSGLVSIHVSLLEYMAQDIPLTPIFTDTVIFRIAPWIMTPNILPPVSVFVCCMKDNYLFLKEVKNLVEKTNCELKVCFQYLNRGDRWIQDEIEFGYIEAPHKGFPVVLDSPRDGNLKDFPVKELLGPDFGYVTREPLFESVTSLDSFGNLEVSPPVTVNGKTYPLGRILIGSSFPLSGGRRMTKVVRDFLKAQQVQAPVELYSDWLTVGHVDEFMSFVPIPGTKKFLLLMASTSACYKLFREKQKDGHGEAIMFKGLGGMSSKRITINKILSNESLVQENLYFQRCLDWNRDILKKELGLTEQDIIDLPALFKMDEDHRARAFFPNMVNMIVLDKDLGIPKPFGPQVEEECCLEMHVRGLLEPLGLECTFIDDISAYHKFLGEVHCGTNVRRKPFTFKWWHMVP
full-length human recombinant PAD4, sequence (Q9UM07 whole entry): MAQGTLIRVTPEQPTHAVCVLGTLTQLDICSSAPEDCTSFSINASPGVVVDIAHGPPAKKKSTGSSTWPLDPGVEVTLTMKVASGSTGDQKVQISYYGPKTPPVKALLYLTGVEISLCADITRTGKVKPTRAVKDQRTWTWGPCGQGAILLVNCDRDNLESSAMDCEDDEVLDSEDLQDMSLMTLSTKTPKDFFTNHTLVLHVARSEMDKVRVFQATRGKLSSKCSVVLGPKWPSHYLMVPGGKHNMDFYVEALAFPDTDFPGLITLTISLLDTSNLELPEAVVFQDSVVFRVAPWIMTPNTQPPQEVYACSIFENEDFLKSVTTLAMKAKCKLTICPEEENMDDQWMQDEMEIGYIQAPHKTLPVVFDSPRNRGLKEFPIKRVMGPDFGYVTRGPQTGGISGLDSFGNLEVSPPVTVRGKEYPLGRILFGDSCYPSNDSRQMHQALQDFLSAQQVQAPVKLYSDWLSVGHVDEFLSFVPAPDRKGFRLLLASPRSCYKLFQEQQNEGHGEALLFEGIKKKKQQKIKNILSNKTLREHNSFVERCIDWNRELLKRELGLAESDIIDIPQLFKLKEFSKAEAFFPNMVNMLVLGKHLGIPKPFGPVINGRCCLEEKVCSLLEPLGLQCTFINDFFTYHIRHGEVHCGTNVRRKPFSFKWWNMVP

Row | binding result [1] | binding result [2] | binding result [3] | binding result (murine recombinant PAD2) | binding result [4] | Binder
1 | binds | binds | binds | binds |  | mSol3 (antibody, V domains shown, also called cross-reactive anti-PAD antibody mSol3) VH: EVQLEESGADLVKPGASVKLSCKASGYTFTSYWMHWVKQRPGQGLEWIGEIIPSNGHTNYNEKFKSKATLTVDKSSSTAYMQLSSLTPEDSAVYYCARGRDFFYGFGDYWGQGTTLTVSS VL: not shown
2 | binds | binds |  | binds | binds | mSol4 (antibody, V domains shown, also called cross-reactive anti-PAD antibody mSol4) VH: LEESGGDLVKLGGSLKLSCAASGFTFSSYYMSWVRQTPEKRLELVAAIHSDGGNTYYPDTVKGRFTISRDNAKNTLYLQMSSLKSEDTALYYCARHSYYGSSYDYWGQGTTLTVSS VL: DIVLTQSPLSLPVSLGDQASISCESSQSLVHSNGITYLHWYLQKPGQSPKLLIYKVSHRFSGVPDRFSGSGSGTDFTLKISRVEAVDLGVYFCSQSTHVPFTFGSGTKLEIKR
